Legend:
mutant human RAGE (82S) [1] = target: T1, mutant human RAGE (82S) (human, UniProt Q15109 23-404); assay: radioligand binding to stably transfected CHO cells expressing human RAGE (82S), Klotz-Hunston fit
T1 construct: whole, on cells; Position 82 counts on the precursor with leader; also called RAGE (G82S); RAGE (S82S)
Experimental: (§1) FIG. 11A. Immunoblotting. Lysates of stably-transfected CHO cells were prepared and subjected to immunoblotting using anti-human RAGE IgG (2 μg/ml). FIGS. 11B-C. Radioligand binding assays. Purified EN-RAGE was radiolabelled using ¹²⁵-I and radioligand binding assays were performed in 96-well tissue culture dishes containing the indicated transfected CHO cells. Assays were performed in the presence of the indicated concentration of radiolabelled EN-RAGE±an 50-fold molar excess of unlabeled EN-RAGE. Elution of bound material was performed in a solution containing heparin. Equilibrium binding data were analyzed according to the equation of Klotz and Hunston. Where indicated, pretreatment with either antibodies (70 μg/ml), human soluble RAGE or bovine serum albumin (50-fold molar excess) was performed. The mean±standard deviation (SD) is shown. In FIG. 11C, * indicates p<0.01 versus respective controls. FIG. 11D. Activation of p44/p42 MAP kinases. The indicated stably-transfected CHO cells were incubated with EN-RAGE, 10 μg/ml, for one hr. Cell lysates were subjected to SDS-PAGE and transfer of the gels' contents to nitrocellulose. Immunblotting was performed using anti-phosphorylated p44/p42 MAP kinase (1 μg/ml). […] In FIGS. 11D-11E, bands were scanned into a densitometer, and band density was quantified using ImageQuant. […]

immobilized RAGE = immobilized RAGE (Homo sapiens (Human), UniProt Q15109 23-342); assay: binding to RAGE immobilized in culture wells
immobilized RAGE, sequence (Q15109 23-342 limits assumed, form in doubt): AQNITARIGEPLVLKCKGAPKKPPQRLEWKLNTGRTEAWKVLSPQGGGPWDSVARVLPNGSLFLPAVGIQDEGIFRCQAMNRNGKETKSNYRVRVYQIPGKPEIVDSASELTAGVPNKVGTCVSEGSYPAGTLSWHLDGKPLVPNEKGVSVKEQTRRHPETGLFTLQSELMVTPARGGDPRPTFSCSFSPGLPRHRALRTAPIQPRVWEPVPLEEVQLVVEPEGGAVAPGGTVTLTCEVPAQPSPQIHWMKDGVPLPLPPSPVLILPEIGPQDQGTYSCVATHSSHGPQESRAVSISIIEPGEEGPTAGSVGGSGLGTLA

macrophage (MP) RAGE = target: T2, macrophage (MP) RAGE; assay: binding to macrophages in culture wells
T2 construct: whole, on cells; also called RAGE on macrophages

[2] = target: T3, wild-type human RAGE (Receptor for Advanced Glycation Endproducts) (human, UniProt Q15109 23-404); assay: radioligand binding to stably transfected CHO cells expressing wild-type human RAGE, Klotz-Hunston fit
T3 construct: whole, on cells; also called Receptor for AGE; wild-type RAGE (Gly82)
T3 sequence (Q15109 23-404): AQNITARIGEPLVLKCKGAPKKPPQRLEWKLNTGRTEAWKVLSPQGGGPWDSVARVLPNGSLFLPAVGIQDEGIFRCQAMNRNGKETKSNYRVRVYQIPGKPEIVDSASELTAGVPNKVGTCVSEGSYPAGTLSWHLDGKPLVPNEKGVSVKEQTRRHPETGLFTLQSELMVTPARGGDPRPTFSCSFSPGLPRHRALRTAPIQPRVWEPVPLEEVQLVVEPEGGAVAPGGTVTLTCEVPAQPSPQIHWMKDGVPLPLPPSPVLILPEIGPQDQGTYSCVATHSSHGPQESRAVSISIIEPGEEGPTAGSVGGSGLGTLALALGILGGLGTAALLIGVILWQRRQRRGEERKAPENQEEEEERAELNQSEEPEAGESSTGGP
Experimental: as §1

[3] = target: T3, wild-type human RAGE (Receptor for …); assay: binding to endothelial cells in culture wells
mutant human RAGE (82S) [4] = target: T1, mutant human RAGE (82S); assay: cell-based or functional assay
[5] = target: T3, wild-type human RAGE (Receptor for …); assay: cell-based or functional assay

T1 sequence (Q15109 other isoform, or with tags, fused parts or gaps mutant): as the sequence (Q15109 23-404) above, with G60S counted along it

Kd (mutant human RAGE (82S) [1]): ~77 nM | Kd (immobilized RAGE): ~75 nM | Kd (macrophage (MP) RAGE): ~75 nM | Kd [2]: ~122 nM | Kd [3]: ~75 nM | IL-6, mutant RAGE against wild-type MPs (mutant human RAGE (82S) [4]): ~7.3 fold | MMP-9 activity (zymography) of human MPs (mutant human RAGE (82S) [4]): ~4.7 fold | MMP-9 activity, mutant RAGE allele against wild-type receptor MPs (mutant human RAGE (82S) [4]): ~2 fold | NF-kB gel shift band (EMSA) in CHO transfectants (mutant human RAGE (82S) [4]): ~11.3 fold | NF-κB activation, mutant against wild-type receptor (mutant human RAGE (82S) [4]): ~2.1 fold | TNF-alpha, RAGE (G82S)/(S82S) against wild-type RAGE MPs (mutant human RAGE (82S) [4]): ~4.5 fold | elaborated TNF-alpha by human MPs (mutant human RAGE (82S) [4]): ~17.8 fold | generation of IL-6 by human MPs (mutant human RAGE (82S) [4]): ~10.9 fold | phosphorylated p44/42 MAP kinases in CHO transfectants (mutant human RAGE (82S) [4]): ~3.9 fold | phosphorylated p44 and p42 MAP kinases in human MPs (mutant human RAGE (82S) [4]): ~4.8 fold | MMP-9 activity (zymography) of human MPs [5]: ~2.3 fold | NF-kB nuclear binding activity (EMSA) in CHO transfectants [5]: ~5.4 fold | activation of p44/p42 MAP kinases in human MPs [5]: ~2.2 fold | adhesion of Molt-4 cells to cultured ECs [5]: 7 fold | expression of cell-surface VCAM-1 on cultured ECs [5]: 4.3 fold | generation of IL-6 by human MPs [5]: ~1.5 fold | generation of TNF-alpha by human MPs [5]: ~4 fold | phosphorylated p44/42 MAP kinases in CHO transfectants [5]: ~2 fold
B1: EN-RAGE (Extracellular Novel RAGE binding protein) (ligand, bovine, UniProt P79105 2-92, looked up)
chain: TKLEDHLEGIINIFHQYSVRVGHFDTLNKRELKQLITKELPKTLQNTKDQPTIDKIFQDLDADKDGAVSFEEFVVLVSRVLKTAHIDIHKE
modifications: radiolabelled with 125-I (Iodobeads) in the radioligand binding assays
notes: mature; also called S100A12

Reference: patent US20020122799A1 (published 2002)
